Experimental data taken from patent US20160031999A1 (CSL, published 2016).
Changes are numbered by the printed parent chain.

Legend:
[1] = biological target: T1, A178S mutant of soluble human IL-11Rα (SEQ ID NO: 99) (human, UniProt Q14626 23-318); assay: Biacore, antibody captured on anti-human IgG Fc, receptor injected; mean ± SE, N = 4
T1 sequence: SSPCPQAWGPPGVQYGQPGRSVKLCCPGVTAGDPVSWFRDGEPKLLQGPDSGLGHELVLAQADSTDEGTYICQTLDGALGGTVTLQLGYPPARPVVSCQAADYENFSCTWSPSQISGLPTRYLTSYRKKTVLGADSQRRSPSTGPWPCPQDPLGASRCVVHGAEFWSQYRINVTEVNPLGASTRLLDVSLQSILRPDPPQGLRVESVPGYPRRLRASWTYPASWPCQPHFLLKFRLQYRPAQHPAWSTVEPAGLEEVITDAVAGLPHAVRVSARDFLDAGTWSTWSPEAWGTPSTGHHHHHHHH
Method: (§1) Various point mutants of soluble forms of IL-11R were produced in which amino acids from mIL-11 were introduced into a soluble form of hIL-11 (SEQ ID NO: 85) (see Table 5 for positions of mutations relative to SEQ ID NO: 1 and for reference to the SEQ ID NO: of each polypeptide) and the binding of antibodies to those polypeptides or to polypeptides of SEQ ID NO: 3 or SEQ ID NO: 85 was determined using Biacore analysis or FACS.
(§2) Anti human IgG Fc specific antibody was chemically immobilized on a CM5 chip to ˜9000 RU. Antibodies were captured at about 0.3-1 μg/ml for 120 seconds on 2 spots in each flow cell. Adjacent spots consisting of only anti human IgG were used as a reference. IL-11 receptors were injected over the captured antibodies and reference spots at 40, 10, 5 and 2.5 nM in duplicate. Blank injections of buffer only were also performed in duplicate. Injection was performed for 3 minutes and dissociation monitored for a further 5 minutes.

[2] = biological target: T2, K66R mutant of soluble human IL-11Rα (SEQ ID NO: 96) (human, UniProt Q14626 23-318); assay: as above
T2 construct: also called K44R
T2 sequence: T1 sequence with K44R, S156A
Method: as §1, §2

[3] = biological target: T3, P65S mutant of soluble human IL-11Rα (SEQ ID NO: 97) (human, UniProt Q14626 23-318); assay: as above
T3 sequence: T1 sequence with P43S, S156A
Method: as §1, §2

[4] = biological target: T4, L101S mutant of soluble human IL-11Rα (SEQ ID NO: 98) (human, UniProt Q14626 23-318); assay: as above
T4 sequence: T1 sequence with L79S, S156A
Method: as §1, §2

[5] = biological target: T5, mouse IL-11Rα on transfected cells (mouse, UniProt P70225 24-424); assay: binding to transfected cells
T5 construct: also called mIL-11Rα
T5 sequence: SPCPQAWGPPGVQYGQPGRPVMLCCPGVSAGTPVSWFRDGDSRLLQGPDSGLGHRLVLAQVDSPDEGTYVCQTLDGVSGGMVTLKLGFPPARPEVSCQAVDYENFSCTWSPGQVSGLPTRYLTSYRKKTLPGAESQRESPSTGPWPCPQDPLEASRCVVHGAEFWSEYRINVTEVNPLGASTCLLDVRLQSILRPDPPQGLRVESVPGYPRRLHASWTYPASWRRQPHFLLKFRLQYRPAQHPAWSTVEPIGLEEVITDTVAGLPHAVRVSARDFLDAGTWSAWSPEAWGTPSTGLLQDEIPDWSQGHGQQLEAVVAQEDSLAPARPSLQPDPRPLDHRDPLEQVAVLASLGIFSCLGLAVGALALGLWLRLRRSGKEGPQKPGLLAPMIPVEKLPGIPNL

B1: antibody 8E4 (antibody, human IgG4 S228P, lambda, V domains shown)
VH: EVQLLESGGGLVQPGGSLRLSCAASGFTFSWYFMGWVRQAPGKGLEWVSYIYPSGGSTGYADSVKGRFTISRDNSKNTLYLQMHSLRAEDTAVYYCARDEGYCSSTSCYFDAFDIWGQGTMVTVSS
VL: QSALTQPPSASGSPGQSVAISCTGTSSDVGGYNFVSWYQQHPGKAPKLLIYEVTKRPSGVPDRFSGSKAGNTASLTVSGLQAEDEADYYCSSYGGSNNAGVFGTGTKVTVLG
Kd [1]: 2.63 nM | Kd [2]: 5.6 nM | Kd [3]: 2.71 nM | Kd [4]: 2.98 nM

B2: antibody 8D10 (antibody, human IgG4 S228P, kappa, V domains shown)
VH: EVQLLESGGGLVQPGGSLRLSCAASGFTFSRYMMGWVRQAPGKGLEWVSSIVPSGGITIYADSVKGRFTISRDNSKNTLYLQMNSLRAEDTAVYYCARDHMGIVATDWGQGTLVTVSS
VL: DIQMTQSPSSLSASVGDRVTITCQASQDITNYLNWYLHKPGKAPKLLIYDASNLQTGVPSRFSGSGSGTDFTFTITSLQPEDFGTYYCQQYDTLHPSFGPGTTVDIKR
Kd [1]: 0.6 nM | Kd [2]: 1.3 nM | Kd [3]: 0.67 nM | Kd [4]: 0.7 nM | binding result [5]: no binding
